{
  "source": "patent US5861477A",
  "about": "(priority 1996, dated 1999)",
  "molecules": {"B1": {"name": "RNase: bovine ribonuclease A (protein, UniProt P61823 27-150, looked up)", "Ribonuclease pancreatic": "KETAAAKFERQHMDSSTSAASSSNYCNQMMKSRNLTKDRCKPVNTFVHESLADVQAVCSQKNVACKNGQTNCYQSYSTMSITDCRETGSSKYPNCAYKTTQANKHIIVACEGNPYVPVHFDASV"}},
  "key": {"[1]": {"test_system": "M. lysodeikticus cell wall", "experiment": "Lysozyme activity: hydrolysis of M. lysodeikticus", "format": "biochemical, Micrococcus lysodeikticus", "protocol": "Measurement of Lysozyme Activity. […] The decrease in turbidity was measured at 450 nm on a recording spectrophotometer. […] Kinetic constants were determined from the linear plots of 1/initial velocity (in change of absorbance/min) against 1/substrate concentration in mg/ml as described (Lineweaver, H. and Burk, D. (1934) J. Amer. Chem. Soc. 56, 658-666). […] Applicant always dedicated a separate spectrophotometer cuvette for this positive control. […] The decrease in turbidity was monitored at room temperature at 450 nm."}, "[2]": {"test_system": "M. lysodeikticus cell wall", "details": "0.125M NaCl; Neville et al. 1972; cited from earlier work"}, "yeast RNA [3]": {"test_system": "yeast RNA", "experiment": "Ribonuclease activity: hydrolysis of yeast RNA", "format": "biochemical", "protocol": "Measurement of Ribonuclease Activity. The catalytic activity of RNase and RnPepz were determined by their hydrolytic effects on yeast RNA (Kunitz, M. (1946) J. Biol. Chem. 164, 563-569; Gutte, B. and […]. Biol. Chem. 246, 1922-1941). […] The decrease in absorbance at 300 nm with time was measured on the recording spectrophotometer. Reaction mixtures that contained no catalyst as well as mixtures containing LyPepz or other cyclic peptides unrelated to RNase were used as controls. The kinetic parameters of the hydrolytic activities were determined by Lineweaver-Burk plots (Lineweaver, H. and Burk, D. (1934) J. Amer. Chem. Soc. 56, 658-666) of 1/absorbance change per minute against 1/substrate concentration in mg per ml. […] The change in absorbance with the test samples (RnPepz) was correlated for the small change obtained with the same amount of unrelated peptides (negative controls) acting on the corresponding concentration of substrate. […] The effects of disulfide-bond reduction on RNase and RnPepz activities were determined by premixing each catalyst (RNase, 1.095×10^-4 μmole; […] The reactions were monitored by the decrease in absorbance at 300 nm as above. The effects of inhibitors (denatured DNA or Ag^+) on activities were also done by pre-mixing RNase or RnPepz with denatured DNA (250 μg) or with 10 molar excess of AgNO3 prior to addition to RNA, using the same amounts of catalyst and substrate described for DTT. Denaturation of DNA was done by boiling a solution in water (1 mg/ml) for 10 min, then chilling immediately in ice."}, "yeast RNA [4]": {"test_system": "yeast RNA", "details": "Gutte et al. 1971; Edelhock and Coleman 1956; cited from earlier work"}, "[5]": {"details": "10 molar excess, pre-mixed 3 hr"}, "[6]": {"details": "hydrolysis of M. lysodeikticus, 25° C., 0.125M NaCl"}, "[7]": {"details": "hydrolysis of yeast RNA, 0.1M sodium acetate, pH 5.0, 25° C."}},
  "note": "“And” between values parts separate entries of the source, which are not always exact repeats. Identical values can stand only once.",
  "data": [
    {"molecule": "LYZ: hen egg lysozyme", "values": [
      {"measurement": "activity on M. lysodeikticus in presence of histamine", "setting": "[1]; [5]", "value": "completely inhibited"},
      {"measurement": "activity on M. lysodeikticus in presence of imidazole", "setting": "[1]; [5]", "value": "completely inhibited"},
      {"measurement": "activity on M. lysodeikticus in presence of tryptamine", "setting": "[1]; [5]", "value": "completely inhibited"},
      {"measurement": "Km", "setting": "[1]; [6]", "value": "120.6 ± 4.0", "unit": "mg/L"},
      {"measurement": "kcat", "setting": "[1]; [6]", "value": "9.26 ± 0.12", "unit": "OD units/μmole/sec"},
      {"measurement": "Km reported value", "setting": "[2]", "value": 129, "unit": "mg/L"},
      {"measurement": "hydrolytic activity on yeast RNA", "setting": "yeast RNA [3]; in words", "value": "no effect"}
    ]},
    {"molecule": "B1", "values": [
      {"measurement": "activity on yeast RNA in presence of denatured DNA", "setting": "yeast RNA [3]; 250 μg denatured DNA", "value": "completely inhibited"},
      {"measurement": "activity on yeast RNA in presence of Ag^+ (heavy metals)", "setting": "yeast RNA [3]; 10 molar excess of AgNO3", "value": "completely inhibited"},
      {"measurement": "hydrolytic activity on yeast RNA at 10° C.", "setting": "yeast RNA [3]; 10° C.", "value": "neither RnPepz nor RNase had any measurable hydrolytic activity"},
      {"measurement": "Km", "setting": "yeast RNA [3]; [7]", "value": "1254 ± 460", "unit": "mg/L"},
      {"measurement": "kcat", "setting": "yeast RNA [3]; [7]", "value": "14.05 ± 6.85", "unit": "OD units/μmole/sec"},
      {"measurement": "Km reported values", "setting": "yeast RNA [4]", "value": "1.20 mg/mL and 1.25 mg/mL"}
    ]}
  ]
}
